Here are results for one molecule from patent publication US20190375815A1 (Novartis, published 2019).

The target in the assay is T1, CD22-Fc (UniProt P20273 20-687, limits assumed).
T1 construct: Soluble staining reagent, detected with an anti-Fc secondary antibody; not shown: Fc part
T1 sequence (looked up): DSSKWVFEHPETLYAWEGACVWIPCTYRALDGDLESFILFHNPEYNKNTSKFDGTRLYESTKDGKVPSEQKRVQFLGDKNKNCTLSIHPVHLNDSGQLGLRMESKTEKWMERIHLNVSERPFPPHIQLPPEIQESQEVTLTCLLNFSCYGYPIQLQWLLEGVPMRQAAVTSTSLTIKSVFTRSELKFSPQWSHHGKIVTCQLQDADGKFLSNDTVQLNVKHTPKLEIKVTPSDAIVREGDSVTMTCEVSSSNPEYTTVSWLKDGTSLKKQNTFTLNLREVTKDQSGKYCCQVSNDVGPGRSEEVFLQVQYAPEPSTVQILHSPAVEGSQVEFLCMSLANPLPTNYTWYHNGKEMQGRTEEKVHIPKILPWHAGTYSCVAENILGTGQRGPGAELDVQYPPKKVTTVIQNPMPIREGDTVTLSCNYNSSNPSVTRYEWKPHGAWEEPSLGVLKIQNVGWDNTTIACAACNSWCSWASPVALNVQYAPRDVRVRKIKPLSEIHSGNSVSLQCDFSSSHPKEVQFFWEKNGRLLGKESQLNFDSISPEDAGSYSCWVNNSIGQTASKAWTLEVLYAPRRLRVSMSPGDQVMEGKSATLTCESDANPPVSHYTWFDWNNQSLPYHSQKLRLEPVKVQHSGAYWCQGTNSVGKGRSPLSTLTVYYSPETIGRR
Description: flow cytometry of transduced JNL cells stained with CD22-Fc and anti-Fc secondary antibody. From the text: The Jurkat NFAT Luciferase (JNL) reporter cell line is based on the acute T cell leukemia line Jurkat. The line was modified to express luciferase under control of the Nuclear Factor of Activated T cells (NFAT) response element. For the transduction with TCARs, 400,000 JNL cells/well of a 12-well plate were transduced with a multiplicity of infection (MOI) of 1.5. Frozen virus-containing supernatant was thawed at room temperature and added to the respective wells. One well each was transduced with CD19-TCAR, CD22-TCAR, or CD19-TCAR plus CD22-TCAR (“CD19/22 dual TCAR”) at MOI=1.5 each. The plates were cultured for 6 days.
TCAR-expressing T cells were tested for their target binding capability by flow cytometry. Non-transduced (UTD), CD19-TCAR, CD22-TCAR and CD19/22 dual TCAR expressing JNL cells were tested: cells were stained with CD22-Fc for 30 min at 4° C. After a wash, cells were stained with anti-Fc secondary antibody for 30 min at 4° C. After a second wash, cells were stained with CD19-CAR anti-idiotype antibody (Ab) for 30 min at 4° C. Cells were then analyzed on a FACS LSR Fortessa after a last wash. Data was analyzed using FlowJo software. […] CD22-TCAR expressing cells bound CD22-Fc but were not stained with the CD19-CAR anti-idiotype Ab (FIG. 47C).
(In flow cytometry, cells or beads pass a laser one at a time.)

B1: CD19scFv-G4S-CD3gECDTM-41BB (other)
chain: EIVMTQSPATLSLSPGERATLSCRASQDISKYLNWYQQKPGQAPRLLIYHTSRLHSGIPARFSGSGSGTDYTLTISSLQPEDFAVYFCQQGNTLPYTFGQGTKLEIKGGGGSGGGGSGGGGSQVQLQESGPGLVKPSETLSLTCTVSGVSLPDYGVSWIRQPPGKGLEWIGVIWGSETTYYSSSLKSRVTISKDNSKNQVSLKLSSVTAADTAVYYCAKHYYYGGSYAMDYWGQGTLVTVSSGGGGSQSIKGNHLVKVYDYQEDGSVLLTCDAEAKNITWFKDGKMIGFLTEDKKKWNLGSNAKDPRGMYQCKGSQNKSKPLQVYYRMCQNCIELNAATISGFLFAEIVSIFVLAVGVYFIAKRGRKKLLYIFKQPFMRPVQTTQEEDGCSCRFPEEEEGGCEL
notes: Chimeric membrane protein: CD19 scFv, G4S linker, CD3 gamma extracellular and transmembrane domains, 4-1BB; Expressed on JNL (Jurkat NFAT luciferase) cells by lentiviral transduction, alone or together with the CD22 TCAR (CD19/22 dual TCAR cells); also called CD19-TCAR; CD19 TCAR
As for B1, the binding result is “no binding”.
